T1: TH72 prey protein (GAL4TAD fused in-frame to a partial SMAD4 starting at amino acid 252) (mouse, UniProt P97471 252-551, limits assumed)
T1 construct: Only the start (aa 252) is stated; the C-terminal end of the clone is not; also called TH72 (DPC4 or SMAD4); partial DPC-4 (SMAD4)
T1 sequence (looked up): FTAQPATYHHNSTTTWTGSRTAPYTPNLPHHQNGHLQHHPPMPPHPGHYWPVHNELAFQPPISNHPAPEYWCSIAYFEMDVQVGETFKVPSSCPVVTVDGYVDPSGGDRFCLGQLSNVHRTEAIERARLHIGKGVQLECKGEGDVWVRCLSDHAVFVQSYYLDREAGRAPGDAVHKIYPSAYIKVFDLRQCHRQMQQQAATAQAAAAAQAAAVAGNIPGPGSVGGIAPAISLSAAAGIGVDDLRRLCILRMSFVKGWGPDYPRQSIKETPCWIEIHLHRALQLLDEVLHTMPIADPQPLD

T2: SIP1 (TH1) prey protein (GAL4TAD fused to the 626 aa polypeptide encoded by th1 cDNA) (mouse, UniProt Q9R0G7 315-940, limits assumed)
T2 sequence: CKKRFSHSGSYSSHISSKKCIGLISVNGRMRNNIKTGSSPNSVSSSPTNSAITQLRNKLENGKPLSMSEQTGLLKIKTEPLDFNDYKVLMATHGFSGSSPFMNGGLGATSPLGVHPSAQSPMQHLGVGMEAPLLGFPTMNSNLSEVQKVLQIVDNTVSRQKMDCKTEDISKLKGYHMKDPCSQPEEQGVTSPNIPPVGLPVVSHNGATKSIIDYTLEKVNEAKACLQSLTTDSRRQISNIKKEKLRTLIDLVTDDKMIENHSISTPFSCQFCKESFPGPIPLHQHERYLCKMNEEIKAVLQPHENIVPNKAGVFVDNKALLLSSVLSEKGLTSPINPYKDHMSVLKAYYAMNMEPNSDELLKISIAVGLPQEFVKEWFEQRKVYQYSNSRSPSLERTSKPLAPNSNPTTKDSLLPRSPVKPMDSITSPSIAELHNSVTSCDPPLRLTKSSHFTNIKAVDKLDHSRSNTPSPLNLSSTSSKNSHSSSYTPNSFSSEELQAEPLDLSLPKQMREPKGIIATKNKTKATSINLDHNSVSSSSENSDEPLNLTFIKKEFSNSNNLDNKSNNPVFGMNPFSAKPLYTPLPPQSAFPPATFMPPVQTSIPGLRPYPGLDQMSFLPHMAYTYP

B1: Lamin (pLAM; Clontech) (other, UniProt P02545 66-230, looked up)
chain: SEEVVSREVSGIKAAYEAELGDARKTLDSVAKERARLQLELSKVREEFKELKARNTKKEGDLIAAQARLKDLEALLNSKEAALSTALSEKRTLEGELHDLRGQVAKLEAALGEAKKQLQDEMLRRVDAENRLQTMKEELDFQKNIYSEELRETKRRHETRLVEID
notes: Bought control bait plasmid
B2: SIP7 prey protein (th74; partial open reading frame fused to the GAL4 transactivating domain in pACT2) (other, not shown: small tags and cut ends)
chain: TEPVRTDRRTEDQTATKERLLPPSGPLPRTPAPAPVTAPDTARCAVLAARHGRALSPGPRALAPSAQRCCPASGRAAETPASVGAGALRVGPAQPSQARQPTMLLLSPRSALVSVYCPQIFLLLSTAVTTLSSVVALGANIICNKIPGLAPRQRAICQSRPDAIIVIGEGAQMGIDECQHQFRFGRWNCSALGEKTVFGQELRVGSREAAFTYAITAAGVAHAVTAACSQGNLSNCGCDREKQGYYNQAEGWKWGGCSADVRYGIDFSRRFVDAREIKKNAGS

What was measured:
Assay in all cases: yeast two-hybrid
[1] = biological target: T1, TH72 prey protein (GAL4TAD fused …)
[2] = biological target: T2, SIP1 (TH1) prey protein (GAL4TAD fused …)
Lamin (pLAM; Clontech) = biological target: B1
[3] = biological target: T3, Empty bait vector pGBT9 (GAL-4 DBD alone) (UniProt P04386 1-147)
T3 construct: Negative control bait; also called empty bait (i.e., GAL-4 DBD alone)
T3 sequence (P04386 1-147 limits assumed): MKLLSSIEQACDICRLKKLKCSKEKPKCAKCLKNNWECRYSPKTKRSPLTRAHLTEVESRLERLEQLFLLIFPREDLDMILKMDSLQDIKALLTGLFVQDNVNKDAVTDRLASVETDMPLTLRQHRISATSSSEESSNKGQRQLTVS

Row | binding result [1] | binding result [2] | binding result (Lamin (pLAM; Clontech)) | binding result [3] | Binder
1 | no binding | no binding |  |  | B1
2 |  |  | no binding | no binding | B2
